From patent publication US20210355220A1 (TIKCRO TECHNOLOGIES, published 2021)
Where two headings read alike, the source gives them in different places.

Key:
[1] = biological target: T1, human CTLA-4 expressed on cells (human, UniProt P16410 36-223); test: flow cytometry on HEK293-hCTLA-4 cells, reference tremelimumab
T1 construct: whole, on cells; On stably or transiently transfected HEK293 cells; also called hCTLA-4; HEK293-hCTLA-4 cells
Method: (§1) To test the binding of antibodies to CTLA-4 under more physiological conditions, the binding of CTLA-4 antibodies to cell-surface CTLA-4 was tested. […] The surface expression of hCTLA-4 in the obtained cell line was tested using a commercial anti-CTLA-4 antibody and compared to the parent cell line (HEK293 without transfection). […] The anti-CTLA-4 antibodies were incubated in serial dilution concentrations with the HEK293-hCTLA-4 cells for 1 hour on ice. Following a wash step, an anti-human antibody conjugated to ALEXA FLUOR® 647® was added for an additional hour. The cells were washed, and propidium iodide (PI) was added to exclude dead cells. The fluorescent signal was measured using FACS and analyzed. Dead cells were removed based on the PI signal. The population was gated based on forward and side scatter (FSC and SSC) parameters, and doublets were removed. The Median Fluorescent Intensity (MFI) of the appropriate channel was calculated for the live single cells from each group. The MFI was plotted versus antibody concentration in Prism software (V6.01) and kinetic parameters were obtained using a curve fit dose response function with four parameters. […] The lower EC₅₀ values indicate increased binding affinity to cell surface hCTLA-4.

[2] = biological target: T2, Recombinant human CTLA-4-his (Sino Biologicals, 11159-H08H) (human, UniProt P16410 36-162); test: SPR (Biacore T100), antibody captured on anti-human chip, CTLA-4-his in solution
T2 construct: Bought protein; also called dimer hCTLA-4; not shown: his tag
T2 sequence (P16410 36-162 limits assumed): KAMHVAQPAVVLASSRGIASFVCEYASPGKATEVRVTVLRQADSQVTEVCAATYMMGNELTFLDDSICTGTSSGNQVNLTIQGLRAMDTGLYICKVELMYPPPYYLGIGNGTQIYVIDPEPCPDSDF
Method: Recombinant human CTLA-4-his (Sino Biologicals, 11159-H08H) was added in a serial 2-fold dilution, starting at a concentration of 500nM. […] The measurement was corrected using the baseline channel and the protein-antibody interaction was measured by the change in surface resonance and quantified with Biacore T100 control software (version 2.0.4).

[3] = biological target: T3, Mouse (Mus musculus) CTLA-4 on HEK293 cells (Mus musculus, UniProt P09793 36-223); test: flow cytometry on HEK293 cells transiently expressing mouse CTLA-4, reference tremelimumab
T3 construct: whole, on cells; also called mouse CTLA-4
Method: (§2) Macaque (Macaca fascicularis), pig (Sus scrofa) and mouse (Mus musculus) CTLA-4 proteins were transiently expressed on the surface of HEK293 cells. […] Binding was measured using FACS and analyzed.

[4] = biological target: T3, Mouse (Mus musculus) CTLA-4 on HEK293 …; test: flow cytometry on HEK293 cells transiently expressing mouse CTLA-4
Method: as §2

[5] = biological target: T4, Macaque (Macaca fascicularis) CTLA-4 on HEK293 cells (Macaca fascicularis, UniProt G7PL88 36-223); test: flow cytometry on HEK293 cells transiently expressing macaque CTLA-4, reference ipilimumab
T4 construct: whole, on cells; also called macaque CTLA-4
T4 sequence (G7PL88 entry or part of it): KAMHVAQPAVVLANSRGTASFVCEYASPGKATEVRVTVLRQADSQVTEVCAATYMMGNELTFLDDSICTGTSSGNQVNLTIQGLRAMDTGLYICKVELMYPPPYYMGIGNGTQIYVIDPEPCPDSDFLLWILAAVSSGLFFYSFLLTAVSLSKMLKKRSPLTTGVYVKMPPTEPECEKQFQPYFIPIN
Method: as §2

[6] = biological target: T5, CTLA-4-his reduced with 100 mM DTT to its monomeric form (human, UniProt P16410 36-162); test: ELISA, plate coated with DTT-reduced CTLA-4-his (monomer), anti-human-HRP, OD450; the box beside the curves does not name the quantity, the value lies at the half-maximal point of the curve (OD450 0.2 to 1.4)
T5 construct: Same bought protein as the dimer, reduced with DTT before coating; also called monomer hCTLA-4; not shown: his tag
T5 sequence (P16410 36-162 limits assumed): as the sequence (P16410 36-162 limits assumed) above
Method: hCTLA-4 can exist in monomer and dimer forms on the cell surface. […] The recombinant protein was incubated for 10 minutes with 100 mM DTT to reduce the protein to its monomeric form. […] The plates were coated overnight at 4° C., followed by a wash step and blocking with 20% milk for 1 hour at 37° C. […] The plate was washed and a secondary anti-human-HRP antibody (Jackson) was added at a 1:5000 dilution. A TMB solution was added, followed by stop solution and the OD at 450 nm was measured. Data was analyzed with Prism software.

[7] = biological target: T4, Macaque (Macaca fascicularis) CTLA-4 on …; test: flow cytometry on HEK293 cells transiently expressing macaque CTLA-4, reference tremelimumab
Method: as §2

[8] = biological target: T6, Pig (Sus scrofa) CTLA-4 on HEK293 cells (Sus scrofa, UniProt Q9MYX7 36-223); test: flow cytometry on HEK293 cells transiently expressing pig CTLA-4
T6 construct: whole, on cells; also called pig CTLA-4
T6 sequence (Q9MYX7 36-223): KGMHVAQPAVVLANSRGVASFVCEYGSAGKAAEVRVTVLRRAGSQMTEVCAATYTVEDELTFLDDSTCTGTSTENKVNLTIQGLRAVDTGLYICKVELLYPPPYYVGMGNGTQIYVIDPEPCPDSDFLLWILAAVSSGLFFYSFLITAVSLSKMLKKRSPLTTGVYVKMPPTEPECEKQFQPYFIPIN
Method: as §2

[9] = biological target: T1, human CTLA-4 expressed on cells; test: flow cytometry on HEK293-hCTLA-4 cells
Method: as §1

[10] = biological target: T1, human CTLA-4 expressed on cells; test: flow cytometry, inhibition of CD80-mFC binding to HEK293-hCTLA-4 cells, reference tremelimumab
Method: As part of their activity, CTLA-4 therapeutic antibodies block the interaction between CTLA-4 and its ligands, leaving the ligands free for CD28 binding. […] First, HEK293-hCTLA-4 cells were incubated with the tested antibodies in a serial dilution for 30 minutes. […] The fluorescence was measured and analyzed. The experiment was performed in triplicate and is representative of three biological repeats.

[11] = biological target: non-recycling version of CTLA-4 on CTLA-4 effector cells (Promega CS186920) (human, UniProt P16410 36-223); test: cell-based or functional assay
non-recycling version of CTLA-4 on CTLA-4 effector cells (Promega CS186920), sequence (P16410 36-223): as the sequence (G7PL88 entry or part of it) above, with N14S, T18I, M106L counted along it

[12] = biological target: T4, Macaque (Macaca fascicularis) CTLA-4 on …; test: flow cytometry on HEK293 cells transiently expressing macaque CTLA-4
Method: as §2

[13] = biological target: T1, human CTLA-4 expressed on cells; test: flow cytometry on HEK293-hCTLA-4 cells; remark: listed apart in the source
Method: as §1

[14] = biological target: T1, human CTLA-4 expressed on cells; test: flow cytometry on HEK293-hCTLA-4 cells, reference ipilimumab
Method: as §1

[15] = biological target: T6, Pig (Sus scrofa) CTLA-4 on HEK293 cells; test: flow cytometry on HEK293 cells transiently expressing pig CTLA-4, reference ipilimumab
Method: as §2

T1 sequence (P16410 36-223): as the sequence (G7PL88 entry or part of it) above, with N14S, T18I, M106L counted along it

Ratio Tremelimumab:Ab55h of EC50 [1]: 7.5 fold
Kd [2]: 0.86 nM
koff [2]: 0.0006 s⁻¹
Ratio Tremelimumab:Ab55h of EC50 [3]: 3 fold
EC50 [4]: 34 nM
Ratio Ipilimumab:Ab55h of EC50 [5]: 2.6 fold
EC50 [6]: 0.002 nM
Ratio Tremelimumab:Ab55h of EC50 [7]: 1.7 fold
EC50 [8]: 0.12 nM
EC50 [9]: 0.17 nM
Ratio Tremelimumab:Ab55h of IC50 [10]: 1.6 fold
NFAT reporter EC50 [11]: 0.63 nM
NFAT reporter EC50, Ratio Ipilimumab:Ab55h [11]: 3.65 fold
EC50 [12]: 0.3 nM
EC50 [13]: 0.24 nM
Ratio Ipilimumab:Ab55h of EC50 [14]: 6.1 fold
Ratio Ipilimumab:Ab55h of EC50 [15]: 5590 fold
B1: Ab55h (antibody, V domains shown)
VH: QVQLQESGPGLVKPSETLSLTCAVSGYSISGDYYWGWIRQPPGKGLEWIGSIYHSGYTYYNPSLKSRVTISVDTSKNQFSLKLSSVTAADTAVYYCARDSGWYVIAFDYWGQGTLVTVSS
VL: EIVMTQSPATLSVSPGERATLSCRASQSVSSNLAWYQEKPGQAPRLLIYGASTRATGIPARFSGSGSGTEFTLTISSLQSEDFAVYYCQQYNNWPPLTFGGGTKVEIK
notes: Human form, compared with an hIgG1 isotype control
